Measurements: publication PMC10516636, “Structural basis for the selective methylation of 5-carboxymethoxyuridine in tRNA modification” (Nucleic Acids Research, 2023)

T1: CmoM (Escherichia coli (ASKA library clone), UniProt P36566 1-261)
T1 sequence: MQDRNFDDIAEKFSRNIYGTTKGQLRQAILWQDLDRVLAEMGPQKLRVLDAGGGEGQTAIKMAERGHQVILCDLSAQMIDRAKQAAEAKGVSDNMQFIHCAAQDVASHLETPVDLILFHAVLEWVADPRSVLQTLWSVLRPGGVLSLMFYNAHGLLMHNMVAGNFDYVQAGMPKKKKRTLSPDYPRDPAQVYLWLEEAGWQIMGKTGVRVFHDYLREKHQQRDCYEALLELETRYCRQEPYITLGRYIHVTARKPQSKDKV

B1: tRNASer1(cmo5UGA) (structured_RNA)
RNA: GGAAGUGUGGCCGAGCGGUUGAAGGCACCGGUCUUGAAAACCGGCGACCCGAAAGGGUUCCAGAGUUCGAAUCUCUGCGCUUCCGCCA
modifications: cmo5U34; i6A37 (partly ms2i6A37); other native tRNA modifications
B2: Escherichia coli CmoM (wild type, recombinant) (enzyme, E. coli)
chain: QDRNFDDIAEKFSRNIYGTTKGQLRQAILWQDLDRVLAEMGPQKLRVLDAGGGEGQTAIKMAERGHQVILCDLSAQMIDRAKQAAEAKGVSDNMQFIHCAAQDVASHLETPVDLILFHAVLEWVADPRSVLQTLWSVLRPGGVLSLMFYNAHGLLMHNMVAGNFDYVQAGMPKKKKRTLSPDYPRDPAQVYLWLEEAGWQIMGKTGVRVFHDYLREKHQQRDCYEALLELETRYCRQEPYITLGRYIHVTARKPQSKDKV
notes: CmoM, SAM-dependent tRNA cmo5U34 methyltransferase of E. coli; cmoM gene on pCA24N from the ASKA library; calculated monomer molecular weight 31.7 kDa; 257 protein residues modelled in the crystal structure; also called E. coli CmoM; source: E. coli BL21 (DE3), purified (HisTrap HP Ni2+ column); not shown: His tag (inferred from the HisTrap Ni2+ purification)

Columns and labels:
CmoM = biological target: T1, CmoM; assay: X-ray crystallography (2.22 A); sinefungin (3 mM); Mg2+ (0.04 M magnesium acetate in reservoir); Crystallization: CmoM:tRNA 1:4 molar ratio, 3 mM sinefungin; reservoir 0.04 M Mg acetate, 0.05 M Na cacodylate pH 6.0, 30% MPD, 25 C; protein in 25 mM HEPES pH; conditions: protein: recombinant; tags: His tag (ASKA pCA24N vector; HisTrap purified); tRNA fold with 16-nt variable arm
[1] = biological target: the molecule itself; assay: SEC; Superdex 75 column, 100 ug wild-type CmoM, 25 mM HEPES pH 7.5, 150 mM NaCl, 0.5 ml/min; ovalbumin (44 kDa) and MnmC (76 kDa) run for comparison

| Binder | binding result (CmoM) | stoichiometry N [1] |
| --- | --- | --- |
| B1 | binds | – |
| B2 | – | 2 |
